{
  "source": "paper doi:10.1101/2024.09.23.614597",
  "biological_target": "PelC lipoprotein (P. aeruginosa)",
  "test": "cryo-EM structure",
  "data": [
    {"substance": "PelC lipoprotein (natural protein)", "values": [
      {"measurement": "stoichiometry N", "result": 12, "unit": "subunits"}
    ]}
  ]
}
